Usually Kd stands for the concentration at which binding is half-saturated. The term koff denotes a measure of how fast the partners let go of each other. One may read the kon as a measure of how fast the partners come together. For orientation: IC50 means the concentration that gives 50% inhibition.

The target in assay [1] is T1, biotinylated recombinant human FcRn-His tagged protein (Acro #FCM-H82W7) (human, UniProt P55899 24-297; P61769 21-119, biotinylated).
T1 construct: also called hFcRn; neonatal Fc receptor
T1 sequence (P55899 24-297 limits assumed, chain 1 of 2): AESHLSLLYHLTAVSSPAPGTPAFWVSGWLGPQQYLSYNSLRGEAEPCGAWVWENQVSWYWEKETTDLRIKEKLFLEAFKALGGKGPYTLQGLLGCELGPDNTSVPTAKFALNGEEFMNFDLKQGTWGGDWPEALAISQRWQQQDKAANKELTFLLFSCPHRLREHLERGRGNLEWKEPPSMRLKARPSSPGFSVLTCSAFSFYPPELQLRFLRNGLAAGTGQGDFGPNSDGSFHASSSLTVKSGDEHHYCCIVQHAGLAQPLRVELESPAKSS
T1 sequence (P61769 21-119 limits assumed, chain 2 of 2): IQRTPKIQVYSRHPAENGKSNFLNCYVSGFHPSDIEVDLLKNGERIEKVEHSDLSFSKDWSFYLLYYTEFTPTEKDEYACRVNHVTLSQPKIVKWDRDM
The assay can be described thus: BLI/Octet; biotinylated human FcRn-His on streptavidin biosensor. As to the method:
(§1) Figure 5D: FIG. 5D. FcRn binding kinetics by anti-TNFRSF25 antibodies. BLI assay was performed using the Octet Red 96e instrument. Streptavidin biosensors were loaded with biotinylated recombinant human(h) FcRn-His tagged protein (Acro #FCM-H82W7) as the ligand. During the association phase, biosensors were incubated with anti-DR3 candidate antibodies at various concentrations for 600 seconds, followed by a 600-second dissociation phase.
(§2) To detect binding of certain whole antibodies to the neonatal Fc receptor (FcRn) at neutral and acidic pH conditions, streptavidin biosensors were loaded with biotinylated recombinant human FcRn-His tagged protein (Acro #FCM-H82W7) as the ligand. During the association phase, biosensors were incubated with anti-TNFRSF25 antibodies at various concentrations for 600 seconds, followed by a 600 second dissociation phase.
A general note: BLI is a label-free optical method that tracks binding on a fibre tip over time.

Assay [2] addresses T2, biotinylated recombinant human TNFRSF25-His tagged (Acro #TN5-H52H3) (human, UniProt Q93038 25-199, biotinylated).
T2 construct: treated as the same protein; also called recombinant biotin-conjugated human TNFRSF25 protein; DR3
T2 sequence (looked up): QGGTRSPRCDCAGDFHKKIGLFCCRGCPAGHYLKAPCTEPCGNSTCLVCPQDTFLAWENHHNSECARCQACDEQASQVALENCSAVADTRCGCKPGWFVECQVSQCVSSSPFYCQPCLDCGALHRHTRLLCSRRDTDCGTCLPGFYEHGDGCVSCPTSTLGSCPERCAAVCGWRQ
The assay is described as follows: MSD competition (lower panel); antibody on TNFRSF25-coated plate, wash, then TL1A-rabbit Fc at 0.4 ug/ml, sulfo-tag anti-rabbit detection; raw MSD signal. As to the method:
(§3) Figure 6: FIG. 6. […] Human TNFRSF25 was precoated on MSD assay plates followed by incubating with various concentrations of anti-TNFRSF25 antibodies.

Assay [3] deals with T1, biotinylated recombinant human FcRn-His …. The assay can be described thus: BLI/Octet; biotinylated human FcRn-His on streptavidin biosensor; pH 7.4. As to the method:
as §1, §2

Assay [4] has the same target. The assay is described as follows: BLI/Octet; biotinylated human FcRn-His on streptavidin biosensor; pH 6.0. As to the method:
as §1, §2

In assay [5] the target is T3, TNFR2 (recombinant) (UniProt P20333 23-257, limits assumed).
T3 sequence (looked up): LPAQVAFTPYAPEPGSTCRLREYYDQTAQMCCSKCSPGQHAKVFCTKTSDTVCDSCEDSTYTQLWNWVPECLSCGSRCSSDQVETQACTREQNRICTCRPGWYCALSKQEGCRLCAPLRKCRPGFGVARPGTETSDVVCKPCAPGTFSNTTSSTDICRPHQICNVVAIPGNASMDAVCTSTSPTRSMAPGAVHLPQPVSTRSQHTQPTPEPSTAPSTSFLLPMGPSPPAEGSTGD
The assay can be described thus: MSD plate binding; human TNFR2 protein immobilized on the plate, sulfo-tag anti-human Fc.

Assay [6] has as its target T2, biotinylated recombinant human …. The assay can be described thus: BLI/Octet; biotinylated TNFRSF25 on streptavidin sensor, mAb in solution; 1:1 Langmuir model. The text has this:
Provided herein are monoclonal and biparatopic antibodies that specifically target human TNFRSF25. The monoclonal antibodies were produced in an engineered CHOK1 cell-line by transfecting the cells with vectors genetically encoding the Heavy and Light chain antibody sequences followed by a single-step affinity-capture chromatography using FcXL resins. The final monoclonal antibody preparation was buffer exchanged into PBS, pH 7.4. Production of biparatopic antibodies followed a two-step process. In the first step of the process, the so called Knob-half (or Hole-half) antibody was produced by transfecting an engineered CHOK1 cell-line with vectors genetically encoding the Knob (or the Hole) Heavy chain and the corresponding Light chain sequences. The CHOK1-cell-harvest from the Knob-half antibody and Hole half-antibody was then purified by Protein A column-based chromatography. In the second step of the process, the two half-antibodies were reassembled into the desired biparatopic format by the use of a mild reduction step followed by quenching the reaction with buffer exchange into PBS, pH 7.4. To detect binding of the antibodies to human TNFRSF25, recombinant biotin-conjugated human TNFRSF25 protein was immobilized onto a streptavidin-coated MSD (Meso Scale Discovery) plate and allowed to bind the anti-TNFRSF25 mAbs in solution. Following a washing step, the bound antibodies were detected using a sulfo-tagged anti-human Fc antibody. The results of these MSD assays are shown in arbitrary units (au) on the y-axis of FIG. 1. To determine the binding affinity of the antibodies to recombinant human TNFRSF25 protein, recombinant biotin-conjugated human TNFRSF25 protein was immobilized onto a streptavidin-coated BLI sensor and allowed to bind the anti-TNFRSF25 mAbs in solution phase. The binding affinity (K_D) was calculated using the on-rates (Ka) and off-rates (Kd) of mAb binding to the target using a 1:1 Langmuir binding model in the ForteBio data analysis software.

For assay [7], the target named is T4, DcR3 (decoy receptor, recombinant) (UniProt O95407 30-300).
T4 construct: also called decoy Receptor, DcR3
T4 sequence (looked up): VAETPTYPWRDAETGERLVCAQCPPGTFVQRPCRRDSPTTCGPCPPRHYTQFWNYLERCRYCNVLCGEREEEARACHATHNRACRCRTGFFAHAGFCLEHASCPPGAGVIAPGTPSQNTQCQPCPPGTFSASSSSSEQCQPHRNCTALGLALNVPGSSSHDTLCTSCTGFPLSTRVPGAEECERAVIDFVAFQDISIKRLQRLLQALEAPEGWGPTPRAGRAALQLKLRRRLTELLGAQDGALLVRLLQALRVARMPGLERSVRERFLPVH
The assay is described as follows: MSD plate binding; human DcR3 protein immobilized on the plate, sulfo-tag anti-human Fc.

The target in assay [8] is FcγR1 (CD64), BLI reagent (UniProt P12314 16-288, limits assumed). The assay can be described thus: BLI; antibody as analyte at 300 nM on FcγR1.
FcγR1 (CD64), BLI reagent, sequence (P12314 16-288 limits assumed): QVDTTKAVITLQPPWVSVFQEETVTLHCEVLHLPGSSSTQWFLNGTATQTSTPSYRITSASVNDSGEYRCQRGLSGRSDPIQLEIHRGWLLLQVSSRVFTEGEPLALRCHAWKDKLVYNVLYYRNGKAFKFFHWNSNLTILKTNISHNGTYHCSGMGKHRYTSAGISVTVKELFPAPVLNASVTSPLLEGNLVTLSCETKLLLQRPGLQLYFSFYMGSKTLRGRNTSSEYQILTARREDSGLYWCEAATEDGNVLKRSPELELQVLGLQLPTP
Assay [9] addresses T2, biotinylated recombinant human …. The assay can be described thus: BLI/Octet Red 96e; biotinylated TNFRSF25-His on streptavidin biosensor; 600 s association, 600 s dissociation. As to the method:
Figure 4: FIG. 4. TNFRSF25 binding affinity of anti-TNFRSF25 antibodies. BLI assay was performed using the Octet Red 96e instrument. Streptavidin biosensors were loaded with biotinylated recombinant human TNFRSF25-His tagged (Acro #TN5-H52H3) as the ligand. During the association phase, biosensors were incubated with anti-TNFRSF25 antibodies at various concentrations for 600 seconds, followed by a 600-second dissociation phase.
To detect binding of certain whole antibodies to human TNFRSF25, streptavidin biosensors were loaded with biotinylated recombinant human TNFRSF25-His tagged (Acro #TN5-H52H3) as the ligand. During the association phase, biosensors were incubated with anti-TNFRSF25 antibodies at various concentrations for 600 seconds, followed by a 600 second dissociation phase.

Assay [10] addresses T5, TNFR1 (recombinant) (UniProt P19438 30-211, limits assumed).
T5 sequence (looked up): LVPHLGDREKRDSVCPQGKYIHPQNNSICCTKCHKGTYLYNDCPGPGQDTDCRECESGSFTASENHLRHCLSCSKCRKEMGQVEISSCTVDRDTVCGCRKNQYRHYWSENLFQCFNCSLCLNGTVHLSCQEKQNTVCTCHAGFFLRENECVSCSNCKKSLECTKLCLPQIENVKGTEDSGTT
The assay can be described thus: MSD plate binding; human TNFR1 protein immobilized on the plate, sulfo-tag anti-human Fc.

In assay [11] the target is T2, biotinylated recombinant human …. The assay can be described thus: MSD competition; TNFRSF25 on plate, antibody titrated, then TL1A-rabbit Fc 0.4 µg/ml as competitor. As to the method: as §3
Assay [12] has as its target T1, biotinylated recombinant human FcRn-His …. The assay is described as follows: BLI/Octet; biotinylated human FcRn-His on streptavidin biosensor; pH 7.4; pH 7.4. As to the method: as §1, §2
In assay [13] the target is T2, biotinylated recombinant human …. The assay can be described thus: MSD plate binding; TNFRSF25 precoated, unpurified scFv supernatant in 2-fold serial dilutions, detection of the C-terminal myc tag. The text has this: (FIG. 2A) TNFRSF25 was precoated on MSD assay plates followed by adding scFv supernatant at 2-fold serial-dilutions followed by detection of the myc tag present on the C-terminus of the scFv's. (FIG. 2B) scFv supernatant were serially diluted and added to an MSD-plate pre-coated with TNFRSF25.

B1: SL-061_YTE (antibody, human IgG1, kappa)
heavy: QVQLQQSGPGLVKPSQTLSLTCAISGDSVSGYSAAWNWIRQSPSRGLEWLGRTYYRSKWYNDYAVSVKSRITINPDTSKNQFSLQLNSVTPEDTAVYYCARDYYGSESYYNRGYYYYGMDVWGQGTTVTVSSASTKGPSVFPLAPSSKSTSGGTAALGCLVKDYFPEPVTVSWNSGALTSGVHTFPAVLQSSGLYSLSSVVTVPSSSLGTQTYICNVNHKPSNTKVDKKVEPKSCDKTHTCPPCPAPEAAGAPSVFLFPPKPKDTLYITREPEVTCVVVDVSHEDPEVKFNWYVDGVEVHNAKTKPREEQYNSTYRVVSVLTVLHQDWLNGKEYKCKVSNKALPAPIEKTISKAKGQPREPQVYTLPPSREEMTKNQVSLTCLVKGFYPSDIAVEWESNGQPENNYKTTPPVLDSDGSFFLYSKLTVDKSRWQQGNVFSCSVMHEALHNHYTQKSLSLSPGK
light: AIQLTQSPSSLSASVGDRVTITCRASPGISSALAWYQQKPGKAPKLLMYDESSQESGVPSRFSGSGSGTDFTLTISSLQPEDFATYYCQQFNDYPLTFGGGTKVEIKRTVAAPSVFIFPPSDEQLKSGTASVVCLLNNFYPREAKVQWKVDNALQSGNSQESVTEQDSKDSTYSLSSTLTLSKADYEKHKVYACEVTHQGLSSPVTKSFNRGEC
notes: SL-061 with YTE half-life extension changes in the Fc
Turning to B1, the “fold improvement in binding affinity at pH 6.0 compared to pH 7.4” value in assay [1] was roughly 10 fold. Further, the “IC50 (read off the curve)” value in [2] is roughly 0.07 nM. In assay [3], the Kd was found to be 8.08 nM, the koff came out at 0.00179 s⁻¹ and the on-rate constant (kon) was 222000 M⁻¹ s⁻¹. In assay [4], the Kd worked out at 0.966 nM, the koff was found to be 0.000193 s⁻¹ and the kon came out at 200000 M⁻¹ s⁻¹.

B2: SL-033 (antibody, human IgG1, kappa, L234A L235A)
heavy: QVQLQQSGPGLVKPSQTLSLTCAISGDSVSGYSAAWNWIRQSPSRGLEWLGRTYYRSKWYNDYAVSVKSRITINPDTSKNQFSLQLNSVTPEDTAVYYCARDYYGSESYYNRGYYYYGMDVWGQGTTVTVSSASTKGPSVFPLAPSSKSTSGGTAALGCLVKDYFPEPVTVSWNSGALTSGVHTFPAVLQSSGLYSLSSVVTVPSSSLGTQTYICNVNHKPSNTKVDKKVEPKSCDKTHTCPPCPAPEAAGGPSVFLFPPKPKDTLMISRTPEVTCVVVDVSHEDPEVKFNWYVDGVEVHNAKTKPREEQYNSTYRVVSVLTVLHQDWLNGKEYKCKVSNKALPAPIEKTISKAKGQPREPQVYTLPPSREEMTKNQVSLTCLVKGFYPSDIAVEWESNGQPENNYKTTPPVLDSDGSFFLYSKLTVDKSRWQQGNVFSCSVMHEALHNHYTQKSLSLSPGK
light: AIQLTQSPSSLSASVGDRVTITCRASPGISSALAWYQQKPGKAPKLLMYDESSQESGVPSRFSGSGSGTDFTLTISSLQPEDFATYYCQQFNDYPLTFGGGTKVEIKRTVAAPSVFIFPPSDEQLKSGTASVVCLLNNFYPREAKVQWKVDNALQSGNSQESVTEQDSKDSTYSLSSTLTLSKADYEKHKVYACEVTHQGLSSPVTKSFNRGEC
notes: Anti-TNFRSF25 IgG1 with Fc-silencing L234A/L235A; also called clone 033; SL-033 (L234A/L235A)
On to B2, for which the binding result is “no binding (tested: about 200 nM (log nM about 2.3))” in [5], “no binding (tested: about 200 nM (log nM about 2.3))” in [7], “binds” in assay [8] and “no binding (tested: about 200 nM (log nM about 2.3))” in assay [10]. In addition, in assay [6], the Kd is less than 1 nM. The “Response (RU)” value in assay [9] came out at 2.19 RU. Also, the koff in [9] was less than 1e-07 s⁻¹. Besides, the on-rate (kon) in assay [9] turned out to be 243000 M⁻¹ s⁻¹. In addition, in [11], the IC50 amounted to 0.07 nM.

B3: SL-062 (antibody, human IgG1, kappa)
heavy: not shown
light: AIQLTQSPSSLSASVGDRVTITCRASPGISSALAWYQQKPGKAPKLLMYDESSQESGVPSRFSGSGSGTDFTLTISSLQPEDFATYYCQQFNDYPLTFGGGTKVEIKRTVAAPSVFIFPPSDEQLKSGTASVVCLLNNFYPREAKVQWKVDNALQSGNSQESVTEQDSKDSTYSLSSTLTLSKADYEKHKVYACEVTHQGLSSPVTKSFNRGEC
notes: Same variable regions as SL-033 with wild-type IgG1 Fc; also called clone 062
In the case of B3, the koff in [12] amounted to 0.00124 s⁻¹; in assay [4], 0.000715 s⁻¹. Further, in assay [8], the binding result is reported as “binds”. Also, the Kd in [3] is 6.54 nM; in assay [4], 3.93 nM. The kon in assay [3] stood at 190000 M⁻¹ s⁻¹; in assay [4] it was 182000 M⁻¹ s⁻¹.

B4: NH24-162 (scFv, not shown: small tags and cut ends)
scFv: EVQLVESGGGSVQPGGSLRLSCAASGFTFSSYGMSWVRQAPGKGLEWISYISSSGGHTYYADSVKGQFTISRDNAKNSLYLQMNSLRAEDTAVYYCARGSGSFDYWGQGTLVTVSSGGRGSGGGGSGSGGSDIVMTQSPSSLSASVGDRVTITCQASQDISNYLSWYQQKPGKAPKLLISDASNLETGVPSRFSGSGSGTDFTFTISSLQPEDIATYYCQQYDNLPITFGQGTRLEIKR
notes: one of the four variants of group m25; used as unpurified E. coli supernatant; the sheet prints NH24-162; also called NH24-162 scFv
As to B4, the binding result in assay [13] is given as “binds”.

These data come from US12319742 (SHATTUCK LABS, dated 2025).
